This is an account of results in PMC4070910, “Cathepsin S Signals via PAR2 and Generates a Novel Tethered Ligand Receptor Agonist” (PLoS ONE, 2014).

One assay deals with human PAR2. The assay is described as follows: IP1 (IP-One HTRF) assay in PAR2-transfected HeLa cells. It is filed as cell-based. The following applies: 1 hour, 37°C, KVDGTS 100 µM, SLIGRL 10 µM, cathepsin S 1 µM. As for the experimental part:
To determine the effect of PAR2 activation on Gq stimulation, we measured IP1, a downstream metabolite of IP3, using the IP-One HTRF assay from Cis Bio, Medford, MA. HeLa cells were transfected with salmon sperm DNA or PAR2 cDNA as described above, plated in 10 cm culture dishes and incubated at 37°C with 5% CO2. After 24 hours, the cells were trypsinized, counted, plated into 96-well plates at 80,000 cells/well and incubated for another 24 hours. The medium was replaced with a stimulation buffer containing LiCl, per the instructions of the manufacturer. Ligands, including cathepsin S (1 µM), KVDGTS (100 µM) and SLIGRL (10 µM) were added to wells and incubated at 37°C for 1 hour and IP1 levels determined. This assay was performed on multiple wells containing each ligand on three occasions. Error bars represent SEM.

Assay [1] deals with HeLa cells transfected with salmon sperm DNA. The assay is described as follows: Fura-2 calcium imaging in HeLa cells transfected with salmon sperm DNA (control). The format is cell-based. As to conditions: HeLa cells transfected with salmon sperm DNA alone. As for the experimental part: Human PAR2 cDNA was cloned as an Xho I-Hind III fragment (1206 bp) into pcDNA3.1(−). 10 µg of DNA were diluted into 0.5 ml of DMEM and mixed with 0.5 ml of DMEM containing 10 µl of Lipofectamine 2000 transfection reagent and incubated at room temperature for 20 minutes. HeLa cells were grown to confluence, trypsinized and 1×10^6 cells were pelleted in a 15 ml tube by centrifugation at 1000 rpm for 5 minutes. The DMEM-Lipofectamine 2000-DNA mixture (1 ml) was added to the cell pellet, resuspended gently and incubated at room temperature for 20 minutes. Four ml of complete DMEM with 10% FBS were added to the tube, mixed by inverting the tube several times, plated into a 96-well glass bottom plate at 20,000 cells/well, and placed in a 37°C CO2 incubator. HeLa cells transfected with vector alone or salmon sperm DNA (shown in the figures) were plated as a control. The medium was aspirated two days after transfection. Fura-2 was used as a ratiometric calcium-sensitive indicator as follows. […]
Imaging was performed using a Zeiss Axiovert 200 M microscope platform equipped with a flipping filter wheel for ratiometric imaging. […] The software later analyzed all images taken during each excitation period. Typically, ratiometric changes were measured in 10–20 cells in each image. An average of the fluorescence of the cells in each image was calculated and plotted against time in seconds.

Assay [2] relates to luciferase-PAR2M2 (glycine40 to alanine). The assay is described as follows: Gaussia luciferase release, luciferase-PAR2M2. It is filed as cell-based, human. As to conditions: cathepsin S 2 µM, 10 minutes, room temperature, triplicate. An excerpt:
(§1) Gaussia luciferase cDNA was cloned, without its termination codon, into pcDNA3.1(−) as an Xho I-EcoR I fragment. Human PAR2 cDNA and its mutants, M1, M2 and M3, were generated using PCR primers designed to start after the signal sequence and end with a termination codon: […] and […] . The PCR amplified cDNAs were cloned into EcoR I and Hind III sites C-terminal to Gaussia luciferase cDNA. The resulting plasmids were called pGLPAR2, pGLPAR2M1, pGLPAR2M2 and pGLPAR2M3.
(§2) The QuickChange site-directed mutagenesis procedure (Agilent Technologies, Santa Clara, CA) was used to generate PAR2 N-terminal mutants. PAR2M1, with a single amino acid change, was created by substituting the leucine^38 codon, CTT, with alanine, GCT, using the primers: PAR2M1F, […], and PAR2M1R, […]. […]
(§3) The plasmid DNAs pGLPAR2, pGLPAR2M1, pGLPAR2M2 and pGLPAR2M3 (10 µg of each) were transfected into 2×10^6 HeLa cells as described above and plated into 10 cm dishes. […] Cells were scraped in order to eliminate the use of trypsin, which could activate PARs, and allowed for the luminescence assay to be performed in a small volume. […] Luminescence assays were performed in triplicate on 50 µl of the supernatants according to the instructions of the manufacturer (New England Biolabs, Ipswich, MA).

The subject of assay [3] is luciferase-PAR2M1 (leucine38 to alanine). Kind of assay: Gaussia luciferase release, luciferase-PAR2M1. As to conditions: cathepsin S 2 µM, 10 minutes, room temperature, triplicate. It is filed as cell-based, human.
Text: as §1, §2, §3

A further assay concerns PAR2. The following applies: proteases expressed in the skin; cited from earlier work. The text has this: PAR2 signaling has been implicated in the development of inflammatory and bowel diseases, asthma, itch and pain. The receptor is expressed on many types of cells including keratinocytes, sensory neurons, fibroblasts, endothelial cells, and inflammatory cells, [3]. Consistent with this broad expression, PAR2 is involved in numerous physiologic and pathophysiologic processes in response to both endogenous and exogenous proteases.

Assay [4] concerns luciferase-PAR2M3 (leucine38 and glycine40 to alanines). The assay is described as follows: Gaussia luciferase release, luciferase-PAR2M3. The format is cell-based, human. The following applies: cathepsin S 2 µM, 10 minutes, room temperature, triplicate.
Text: as §1, §2, §3

B1: cathepsin S: Recombinant human cathepsin S, cysteine protease, expressed in E.coli, refolded and activated (protein, UniProt P25774 115-331, looked up)
Cathepsin S: LPDSVDWREKGCVTEVKYQGSCGACWAFSAVGALEAQLKLKTGKLVSLSAQNLVDCSTEKYGNKGCNGGFMTTAFQYIIDNKGIDSDASYPYKAMDQKCQYDSKYRAATCSKYTELPYGREDVLKEAVANKGPVSVGVDARHPSFFLYRSGVYYEPSCTQNVNHGVLVVGYGDLNGKEYWLVKNSWGHNFGEEGYIRMARNKGNHCGIASFPSYPEI
In the assay on human PAR2 (KVDGTS and SLIGRL after subtracting baseline values, cathepsin S 'in this particular experiment'), B1 had an IP1 level of 122 nM. For the same molecule, the “IP1 generation (in words)” value in the assay with human PAR2 (three occasions) is recorded as “consistently generated higher levels of IP1 than either SLIGRL or KVDGTS”. Further, the “calcium response in cells without PAR2 (in words)” value in assay [1] is recorded as “Neither cathepsin S nor any of the peptides induced calcium responses”. The “receptor cleavage, luciferase luminescence (in words)” value was “did not cleave PAR2M2 or PAR2M3” in assay [2]; “cleaved the native and PAR2M1 receptors” in assay [3]; “did not cleave PAR2M2 or PAR2M3” in assay [4]. Further, in the assay on PAR2, the “PAR2 activation (in words)” value is on record as “activated”.
